Article doi:10.1101/2022.03.21.485124

What was measured:
Assay in all cases: SEC
[1] = molecular target: human CD81 large extracellular loop domain, mutant E188Q (human)
[2] = molecular target: human CD81 large extracellular loop domain, mutant D139N (human)
[3] = molecular target: wild-type human CD81 large extracellular loop domain (wt-hCD81LEL) (human)

“human CD81 large extracellular loop domain, mutant E188Q (domain or fragment)” was tested. Which stoichiometry N [1] did it give?
The stoichiometry N was 2.

Which stoichiometry N [2] does the source give for “human CD81 large extracellular loop domain, mutant D139N (domain or fragment)” here?
The stoichiometry N was 2.

For “wild-type human CD81 large extracellular loop domain (wt-hCD81LEL) (domain or fragment)”, which stoichiometry N [3] is on record?
Its stoichiometry N is 2.
